# Reference: paper PMC4516285 (Biochemistry, 2015)
# T1: wild type Escherichia coli CheY (E. coli, UniProt P0AE67 2-129)
# T1 sequence: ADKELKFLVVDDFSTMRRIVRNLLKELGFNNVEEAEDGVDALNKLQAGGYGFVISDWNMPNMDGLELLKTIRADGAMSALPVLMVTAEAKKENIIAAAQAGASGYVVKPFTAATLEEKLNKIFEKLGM
# How the values were obtained:
# [1] = biological target: FliM 1-16 (Escherichia coli) (UniProt P06974); settings: cited from earlier work
# [2] = biological target: T1, wild type Escherichia coli CheY; assay: other fluorescence titration
Kd [2],Molecule,Kd [1]
–,CheY (from UniProt P0AE67),280 µM
370 µM,MGDSILSQAEIDALLN [FliM_(1–16) peptide (amino terminal 16 residues of E. coli FliM)],–
